Data as given in the DeepSol protein solubility set.

Assay: soluble on expression in E. coli; label from the status in PepcDB or PDB records

Sequence	soluble on expression in E. coli
MKQLNGGNVYRPTGKEKNLQAILNIHRHVIQNISPVTITAGKTLDIKIDNQSHILLITKGAIKVCRRIDSIVMGCGVSPMILGLVDAYADLYQLEENSDVFFIAETTCEYYPVPVKDFVEIADEKHLWRDISNILMYRIAFMTNRDRNLIGQDAYSQIKALLLELWSYPESSRFEINAQNFIQQRTGLSRSRIMQVLSELKAGDYIKILHGRLLELRNLPVSF	not soluble
ILYLHGGYNTLQPSPFHWRLLDKLTLNTLHEVVLPIYPKSPDYHYLETFKAIRDVYNQLVEEVGANNIVMMGDGSGGGLALSFVQSLINDNQEVPRKLFLLSPLLDATLTNPNITKTLEENDILVSRFGVHQLMKSWTNDLPLSDARISPLYGTLKGLPPIYMYGGGREILSPDMHAFTHALEECGNDVEFKEYPKMVHDFPIYPIRQSHKVLKHITKSI	not soluble
MVRVDVEERFNRIARNTVEIVTEEELKGLLASGARIKGYIGYEPSGVAHIGWLVWMYKVKDLVEAGVDFSVLEATWHAYINDKLGGDMDLIRAAARIVRRVMEAAGVPVERVRFVDAEELASDKDYWGLVIRVAKRASLARVRRALTIMGRRAEEAEVDASKLIYPLMQVSDIFYMDLDIALGGMDQRKAHMLARDVAEKLGRKKPVAIHTPIISSLQGPGRMEASQGEIDDVLAEVKMSKSKPETAVFVVDSDDDIRRKIRKAYCPAKQVQGNPVLEIARYILFARDGFTLRVDRPAKYGGPVEYTSYEELERDYTDGRLHPLDLKNAVAESLIEVVRPIRGAVLGDPAMKRALEAIEGKVTR	soluble
MHVAMALADIDRVGGVVIIDPVVHPLTPKHPPNQAERGQIRADRCSTAVFAWLFHEWNATGRSALMRGLTCFAGNTNAQPKHPRRAFRDRLGSTGPRPPRLTVASTPSRQPHHRRILIVTKAKSGSVAPELDTPTDLPPQSVEKISTALNGLLADSFALYLKTKNFHWHISGRHFRDYHLLLDEQSAQILATTDDLAERVRKVGGTTLRSIGHISKLQSIQDNNDDYVPPREMLRELMNDNKKVAAAMRKAHEIVDECKDAASAGLLENFIDETEKRTWFLFEATRQEGANEA	not soluble
MGENITTRGVDLLGLPTGTRLRLGESALVELTGLRNPCSQLDNYQPGLTAAVLGRDEQGNLIRKAGVMAIVLEDGEVRPGDAIDIQLPPLPHRALEKV	not soluble
MPATTSIPPVTAPGTGGEASSFNVDELIQYVLQGKPLSEPQVARLCQKAREVLEKEENVHTVRAPVTVCGDIHGQFHDLLELLKIGGLPPDTNYLFMGDYVDRGYYSVETVTLLLLFKIRYPERVQILRGNHESRQITQVYGFYDECVRKYGSANVWKLLTDLFDYLPLAAVVENEIFCLHGGLSPTLDSLAHIRSLERVQEVPHEGPMCDLLWSDPEDKDGWGISPRGAGFTFGADITEQFCHNNGLKTIARAHQLVAEGYSWAHSDKLVTIFSAPNYCYRCGNLAGLLELDEHMNKCFFQFDPAPRRGEAQVSKKTPDYFL	not soluble
MASVAAARAVPVGSGLRGLQRTLPLVVILGATGTGKSTLALQLGQRLGGEIVSADSMQVYEGLDIITNKVSAQEQRICRHHMISFVDPLVTNYTVVDFRNRATALIEDIFARDKIPIVVGGTNYYIESLLWKVLVNTKPQEMGTEKVIDRKVELEKEDGLVLHKRLSQVDPEMAAKLHPHDKRKVARSLQVFEETGISHSEFLHRQHTEEGGGPLGGPLKFSNPCILWLHADQAVLDERLDKRVDDMLAAGLLEELRDFHRRYNQKNVSENSQDYQHGIFQSIGFKEFHEYLITEGKCTLETSNQLLKKGIEALKQVTKRYARKQNRWVKNRFLSRPGPIVPPVYGLEVSDVSKWEESVLEPALEIVQSFIQGHKPTATPIKMPYNEAENKRSYHLCDLCDRIIIGDREWAAHIKSKSHLNQLKKRRRLDSDAVNTIESQSVSPDHNKEPKEKGSPGQNDQELKCSV	soluble
SKVALITGVTGQDGSYLAEFLLEKGYEVHGIKRRASSFNTERVDHIYQDPHTCNPKFHLHYGDLSDTSNLTRILREVQPDEVYNLGAMSHVAVSFESPEYTADVDAMGTLRLLEAIRFLGLEKKTRFYQASTSELYGLVQEIPQKETTPFYPRSPYAVAKLYAYWITVNYRESYGMYACNGILFNHESPRRGETFVTRKITRAIANIAQGLESCLYLGNMDSLRDWGHAKDYVKMQWMMLQQEQPEDFVIATGVQYSVRQFVEMAAAQLGIKLRFEGTGVEEKGIVVSVTGHDAPGVKPGDVIIAVDPRYFRPAEVETLLGDPTKAHEKLGWKPEITLREMVSEMVANDLEAAKKHSLLKSHGYDVAIALES	soluble
MPYDFYTDGSALGNGQQGSRGGYGVHVPSDTSKNVSGSYPHGPQTNNRYELEAIKHATQMARDVPDSHVRIHTDSKNAKDSVTKWNDNWKSNGYKTSSGQDVKNQDLIRDIDRNVQALKHSGKTVEFEHVRGHSNRMYI	not soluble
MSVLEVKGLTKVYQSKGSVATTALNDINFKIEEGEFVGIMGPSGSGKTTLLNLLATIDKQTSGHVLVNGEEINQMRAAKLAEFRRTHLGFIFQDFNLLDTLSIKENIILPLVMAKKSVNEIDAKVLEIAKFLNIEEILNKKVYEVSGGQQQRAAAARAIIHEPTLILADEPTGNLDSKSAKSLMSALQDLHEQKRVTIAMVTHDPVAASYCERILFIRDGEIFSEIHKGRTKQAFFQEILDVLAMLGGEYHELSPARA	not soluble
MGHHHHHHSHELEALSQDPRRYEEWKWFRCPTLLEVLEQFPSVALPAPLLLTQLPLLQPRYYSVSSAPSTHPGEIHLTVAVLAYRTQDGLGPLHYGVCSTWLSQLKPGDPVPCFIRGAPSFRLPPDPSLPCILVGPGTGIAPFRGFWQERLHDIESKGLQPTPMTLVFGCRCSQLDHLYRDEVQNAQQRGVFGRVLTAFSREPDNPKTYVQDILRTELAAEVHRVLCLERGHMFVCGDVTMATNVLQTVQRILATEGDMELDEAGDVIGVLRDQQRYHEDIFGLTLRTQEVTSRI	not soluble
MLPRTMAADEGHVPGRFDAVIVGGGHNGLVAAAYLARAGRSVLVLERLGNTGGAAVSTRPFAGVDARLSRYSYLVSLLPRKIVRDLGLDFRVRGRTVSSYTPAERHGRPTGLLVGGGERRTREAFGRLTGSAREYESWQRFYGMTGRVARQVFPTLTEPLPSRDELRRRVDDEDAWRVLFEEPIGAAIEENFTDDLVRGVVLTDALIGTFADAHDPSLRQNRCFLYHIIGGGTGAWDVPVGGMGALTDALAAAARDAGAVLATGHEAVRIETDGRSAEVTYRDADGEGTVSARHVLVNAAPQELARLTGDSPPVPAEGAQLKVNMLLKRLPALRDTAVDPREAFAGTFHIAEGYEQLAAAHAQAAAGSLPEAPPSEIYCHSLTDPTILGPDLVEQGYQTLTLFGLHTPARLFERDNEGVREELLKSTLAQLDAHLAEPLVDCLATDAEGRPCIEAKSPLDLERDLRLPGGNIFHRDLAFPYAQEGTGRWGVETAHANVLLCGAGAVRGGGVSGVPGHNAAMAALEDVGERALGLEHHHHHH	not soluble
MAHHHHHHMGIVGEYEILETLGTGAFSKVKLVRHLPTNVYFVAKIIQKSNQQVETDVRLEISILRRLRHRNIVQLIEILESSNNYYIILEPVLGGDVCSLVLSQEGGLAEDFVANLFFQLVAGLRACHQNGVAHRDLKPENLLLTGEKVLKISDFGLSRLHKQSNFHAEAEEYAHTLTGTLAYVAPEVLDGNYDAFKADIWSIGCILYVMLTGQFPFGPTTDACELGERIKDGRVCEMPKSVSENARELTMWLLSRDPASRPSLDEVATHAFLRQHVPAKNIMALTRSRQAKILAPDPSEFSSAIPEEKQVANS	soluble
MGSDKIHHHHHHMDILQTANERMEQLAALMNKDIKQKVSADQKVKVGVDLGTSSIVFVVLDEHDVPLFGAFEFADAVRDGLVVNYRESVEVVTRLKERAEKCLGITLTHASGAIPPGTVGNNKKVVANVIESAGMEALYTIDEPTAAAAVLGLQDGAVVDVGGGTTGISVFENGEVIYTADEPTGGTHMTLVLAGYYGVPVEKAEQNKREQKDSSEHFSVMRPVVEKMAEITRVHLEKSPSEPLYIVGGASAYSQFKDTFESYLKTPVFQPNYPQYVTPLGIAMSSGSENL	not soluble
MLPLPTWTLSDVDAILVLSFGGPEGQQDVIPFLENVTRGRGIPRERLEEVAVHYRHFGGISPLNALNREIIGNIIEVLSSRGLEIPVYFGNRNWHPFVNDTAEKMVRDGVRNVAVFATSAWGGYSGCRQYDEDIVRMNHHLEEKELPTLNCLKLRQFFDHPLFIEEMSSVVFQAARELGISALDELQLHQKVVFTAHSIPEVANENSGRKEDGPLYSRQVYEAASLVAKHLGISQERYDVVWQSASGNGQIPWLEPDILDYAKCQHDEGVSELVVAPIGFISDHMEVVWDLDHELQDLASDLGMSISRAATVGHTDSFATMIVELVEESLGVKPHQNLGTVPSKGCSFNGEPCEVNCCKPVQRPHSAKA	not soluble
MMINIQEDKLVSAHDAEEILRFFNCHDSALQQEATTLLTQEAHLLDIQAYRAWLEHCVGSEVQYQVISRELRAASERRYKLNEAMNVYNENFQQLKVRVEHQLDPQNWGNSPKLRFTRFITNVQAAMDVNDKELLHIRSNVILHRARRGNQVDVFYAAREDKWKRGEGGVRKLVQRFVDYPERILQTHNLMVFL	soluble
MVDSDDDGDRRRDKFARERRDEDYRRGGGGFNRYDNKRPGGRRDDYQVKRSRGDDADDSFDPVSRSGNGSDLPTESDSIYSGPLQTFKKFLTSQEDDISEEDAIKKYNEYKTEHRKHQLERFFRAHKDEEWFRLKYKPDDAKKLREAHLENVQKRLQVFNELKEQGQFNKFSLDFGDAEAIIRMLDSVVVKLENGTEDELKAVLAQKLEDESLADIKKDENGNGTEQPKEEPEVKQESGATEELEEGAIEDGTEKSSNKVNIHRTCSVFLRNIPPGLTYEELEGLCKKSPGFLRLALTDGIAERKFYRRGWATFKRDINIKEICWALNAHRLRETDLNAIINRDITRRVRTNNGIASHKQVAINDLKLAVKLTVLYDKKIGLFNAADEADADREMDIRMGVDLVAASTNPLIKEVKSLVPHDVLNDISEEEAELLGVSNGGEAPAEKIRFERDDNILKALDLLIVYLRIVHSIDFYNHGHYAQEDSMPNRCGLIHVRGQPPSGVSITTDEDGALVVPQKFVNDFISGFNSRIEKGLIEKQYVSEEELEKMGKKDGEKEVEAFIQKNTVELAKDKWLCPLSGKKFKGPEFIRKHLQSKHEDKLEEARAEADFFNNYLADAQRPVDCEPKQAPRDDHRGGGGGERGGYGRERDDDRGPGGGGRNSFGGGGYDRRPQFPPRHSLGGRGGGGRYFEDAPRRQPVSYRDLDAPDDIP	not soluble
MSFTEDQEKIALEILSKDKHEFYEILKVDRKATDSEIKKAYRKLAIKLHPDKNSHPKAGEAFKVINRAFEVLSNEEKRSIYDRIGRDPDDRQMPSRGAASGFRGSAGGSPMGGGFEDMFFNSRFGGQRAGPPEDIFDFLFNAGGSPFGASPFGPSASTFSFGGPGGFRVYTNNRGGSPFMRQQPRSRQQQQQAEENAVNSQLKN	not soluble
MGSDKIHHHHHHLLVKRARLIVGNCWYLLHRIPVEIKDNSQYDIKLSDFGLSEFAESAKFDPVLCGTGPYMSGYRLEGVQGYQHSYVDDVWALAVCLFFLLYNEWPFRKRDGNVKDLLGFDPSQMWVPFPQGCRITAKRVGQGLIIENVNWPDASGDFSNYKGYDLLSYVKDQSVLEFSKVGGEIYEFRAGDDVEQINHQMNAALTEHECFIRFPGQEEDRKRRFRNEVLAGIREYWIQSDIEYGSGTRKQDLLESLATGSTEHSILQKLRVLPAYKSARKRSAEQSELGMLSFGLSGILKNSK	not soluble
